Experimental data published in US12618845B2, “Methods and compositions for protein sequencing” (Quantum-Si Incorporated, priority 2018, dated 2026).
Positions count from the first letter of the chain named. Names may count otherwise.

B1: Saccharomyces cerevisiae UBR1: amino acid recognition protein, SEQ ID NO: 18 (protein, listed as Saccharomyces cerevisiae)
chain: MGSVHKHTGRNCGRKFKIGEPLYRCHECGCDDTCVLCIHCFNPKDHVNHHVCTDICTEFTSGICDCGDEEAWNSPLHCKAEEQ
B2: Synechococcus elongatus ClpS1: amino acid recognition protein, SEQ ID NO: 10 (protein, listed as Synechococcus elongatus)
chain: MAVETIQKPETTTKRKIAPRYRVLLHNDDFNPMEYVVMVLMQTVPSLTQPQAVDIMMEAHTNGTGLVITCDIEPAEFYCEQLKSHGLSSSIEPDD
B3: Escherichia coli leucyl/phenylalanyl-tRNA-protein transferase: amino acid recognition protein, SEQ ID NO: 16 (protein, listed as Escherichia coli)
chain: MRLVQLSRHSIAFPSPEGALREPNGLLALGGDLSPARLLMAYQRGIFPWFSPGDPILWWSPDPRAVLWPESLHISRSMKRFHKRSPYRVTMNYAFGQVIEGCASDREEGTWITRGVVEAYHRLHELGHAHSIEVWREDELVGGMYGVAQGTLFCGESMFSRMENASKTALLVFCEEFIGHGGKLIDCQVLNDHTASLGACEIPRRDYLNYLNQMRLGRLPNNFWVPRCLFSPQELE
B4: GID4: GID4 evaluated as a potential reagent for proline recognition; species not stated at the place (protein, UniProt Q8IVV7 1-300, looked up)
Glucose-induced degradation …: MCARGQVGRGTQLRTGRPCSQVPGSRWRPERLLRRQRAGGRPSRPHPARARPGLSLPATLLGSRAAAAVPLPLPPALAPGDPAMPVRTECPPPAGASAASAASLIPPPPINTQQPGVATSLLYSGSKFRGHQKSKGNSYDVEVVLQHVDTGNSYLCGYLKIKGLTEEYPTLTTFFEGEIISKKHPFLTRKWDADEDVDRKHWGKFLAFYQYAKSFNSDDFDYEELKNGDYVFMRWKEQFLVPDHTIKDISGASFAGFYYICFQKSAASIEGYYYHRSSEWYQSLNLTHVPEHSAPIYEFR
B5: Plasmodium falciparum ClpS: amino acid recognition protein, SEQ ID NO: 15 (protein, listed as Plasmodium falciparum)
chain: MFKDLKPFFLCIILLLLLIYKCTHSYNIKNKNCPLNFMNSCVRINNVNKNTNISFPKELQKRPSLVYSQKNFNLEKIKKLRNVIKEIKKDNIKEADEHEKKEREKETSAWKVILYNDDIHNFTYVTDVIVKVVGQISKAKAHTITVEAHSTGQALILSTWKSKAEKYCQELQQNGLTVSIIHESQLKDKQKK
B6: Escherichia coli ClpS: amino acid recognition protein, SEQ ID NO: 13 (protein, listed as Escherichia coli)
chain: MGKTNDWLDFDQLAEEKVRDALKPPSMYKVILVNDDYTPMEFVIDVLQKFFSYDVERATQLMLAVHYQGKAICGVFTAEVAETKVAMVNKYARENEHPLLCTLEKA
B7: Escherichia coli ClpS M40A: amino acid recognition protein, SEQ ID NO: 14 (protein, listed as Escherichia coli)
chain: B6 chain with M40A
B8: Thermosynechococcus elongatus ClpS: amino acid recognition protein, SEQ ID NO: 12 (protein, listed as Thermosynechococcus elongatus)
chain: MPQERQQVTRKHYPNYKVIVLNDDFNTFQHVAACLMKYIPNMTSDRAWELTNQVHYEGQAIVWVGPQEQAELYHEQLLRAGLTMAPLEPE
B9: Agrobacterium tumifaciens ClpS1: amino acid recognition protein, SEQ ID NO: 4 (protein, listed as Agrobacterium tumifaciens)
chain: MIAEPICMQGEGDGEDGGTNRGTSVITRVKPKTKRPNLYRVLLLNDDYTPMEFVIHILERFFQKDREAATRIMLHVHQHGVGECGVFTYEVAETKVSQVMDFARQHQHPLQCVMEKK
B10: Agrobacterium tumifaciens ClpS1 C7S C84S C112S: amino acid recognition protein, SEQ ID NO: 7 (protein, listed as Agrobacterium tumifaciens)
chain: B9 chain with C7S, C84S, C112S
B11: Agrobacterium tumifaciens ClpS1 C7S: amino acid recognition protein, SEQ ID NO: 6 (protein, listed as Agrobacterium tumifaciens)
chain: B9 chain with C7S
B12: Synechococcus elongatus ClpS2: amino acid recognition protein, SEQ ID NO: 11 (protein, listed as Synechococcus elongatus)
chain: MSPQPDESVLSILGVPRPCVKKRSRNDAFVLTVLTCSLQAIAAPATAPGTTTTRVRQPYPHFRVIVLDDDVNTFQHVAECLLKYIPGMTGDRAWDLTNQVHYEGAATVWSGPQEQAELYHEQLRREGLTMAPLEAA
B13: H. sapiens Fyn SH2 domain triple mutant superbinder: amino acid recognition protein, SEQ ID NO: 23 (protein, listed as Homo sapiens)
chain: MGAMDSIQAEEWYFGKLGRKDAERQLLSFGNPRGTFLIRESETVKGAYALSIRDWDDMKGDHVKHYLIRKLDNGGYYITTRAQFETLQQLVQHYSERAAGLSSRLVVPSHK

Columns and labels:
[1] = test system: amino acid at a terminal position of a polypeptide; settings: amino acid identity at a terminal position of a polypeptide; phospho-Y also at an internal position; cited from earlier work
[2] = test system: N-terminal amino acid of peptides; experiment: Single-molecule terminal amino acid discrimination by labeled affinity reagent (dwell time analysis); assay type: binding; settings: for Terminal amino acid recognition: single molecule traces, dwell time analysis
Method: An adaptor protein involved in proteolytic pathways was identified as a potential candidate for use as a labeled affinity reagent for detecting N-terminal aromatic residues. The adaptor protein, ClpS2 from an α-proteobacterium (A. tumefaciens), was expressed and labeled at an exposed cysteine residue. […] The exposed cysteine residue was labeled with a rhodamine dye (ATTO 532).
Peptides having different N-terminal aromatic residues were prepared to test whether the labeled ClpS2 was capable of N-terminal amino acid discrimination at the single molecule level.
FIG. 19C is a plot showing discriminant pulse durations (time duration of signal peaks) among the three N-terminal residues when reversibly bound by labeled ClpS2. FIG. 19D is a plot showing discriminant interpulse durations (time duration between signal pulses) among the three N-terminal residues. […] Mean pulse duration for the different N-terminal residues is visualized by histograms (A)-(B) and layered histogram (C).

[3] = test system: immobilized peptide FYPLPWPDDDY with N-terminal phenylalanine; experiment: Simultaneous single-molecule recognition with differentially labeled recognition molecules; assay type: binding; settings: 500 nM each binder
Method: Single peptide molecules containing N-terminal phenylalanine ([…] (SEQ ID NO: 79)) were immobilized in sample wells of a chip. Buffer containing 500 nM each of at ClpS1 (Agrobacterium tumefaciens ClpS1; sequence provided in Table 1) and at ClpS2-V1 (Agrobacterium tumefaciens ClpS2 variant 1; sequence provided in Table 1) was added, where at ClpS1 and at ClpS2-V1 were labeled with Cy3 and Cy3B, respectively. Since the intensity of Cy3B is higher than Cy3, at ClpS2-V1 binding events were readily distinguishable from at ClpS1 binding events.
The pulse duration distributions were distinct for each binder (FIG. 24B) and corresponded to their kinetic profiles as observed in single-binder experiments. Mean pulse duration was 1.3 seconds for at ClpS1 and 1.0 seconds for at ClpS2-V1 (FIG. 24C). Pulse rate was also distinct: 8.1 pulses/min for at ClpS1 and 14.1 pulses/min for at Clp2-V1 (FIG. 24C). Thus, when more than one recognition molecule is included for dynamic recognition of immobilized peptides, the binding characteristics of each recognition molecule (including pulse duration, interpulse duration, and pulse rate) can simultaneously provide information about peptide sequence.

[4] = molecular target: fluorescently-labeled peptides with N-terminal phospho-tyrosine, tyrosine or phospho-serine (Homo sapiens, UniProt P06241, C239S/C240S/C246S/K204L/S186A/T181V); experiment: Single-molecule recognition of post-translationally modified amino acids by immobilized SH2 domain variant

Row | Molecule | Binding Pref. [1] | also measured
1 | B1 | K, R, H | –
2 | B2 | F, W, Y | –
3 | B3 | K, R | –
4 | B4 | – | Terminal amino acid recognition [2]: proline recognition
5 | B5 | F, W, Y, L, | –
6 | B6 | F, W, Y, L | –
7 | B7 | F, W, Y, L | –
8 | B8 | F, W, Y, L | Mean pulse duration ([2]; terminal leucine residue of polypeptides): 0.71 s
9 | B9 | F, W, Y, L | Mean pulse duration [3]: 1.3 s; Pulse rate [3]: 8.1 pulses/min; Terminal amino acid recognition [2]: differentiable recognition of phenylalanine, leucine, tryptophan, and tyrosine
10 | B10 | F, W, Y, L | –
11 | B11 | F, W, Y, L | –
12 | B12 | F, W, Y, L, and V, I | Terminal amino acid recognition [2]: leucine recognition
13 | B13 | phospho-Y | Peptide binding by the immobilized protein ([4]; peptide with N-terminal and penultimate unmodified tyrosines (YY)): not detected; Peptide binding by the immobilized protein ([4]; peptide with N-terminal phospho-serine): not detected; Peptide binding by the immobilized protein ([4]; peptide with N-terminal phospho-tyrosine): detected; Peptide binding by the immobilized protein ([4]; peptide with N-terminal unmodified tyrosine (Y)): not detected
